Eight molecules from US20250051471A1 (WILLIAM ROBERT ARATHOON LIVING TRUST DATED AUGUST 29 2016, published 2025) can be followed below.

Experiment [1] addresses T1, human ABCB1 on cells (human, UniProt P08183 1-1280).
T1 construct: whole, on cells; also called MDR1; Pgp
Nature of the experiment: flow cytometry, DX5/ADR CD47 WT cells (carry both ABCB1 and CD47), % positive cells. (In general: In flow cytometry, cells or beads pass a laser one at a time.)

The target of experiment [2] is T1, human ABCB1 on cells. Put plainly: flow cytometry, DX5 CD47 KO cells, % positive cells.
Experiment [3] deals with T2, human CD47 on cells (human, UniProt Q08722 19-323).
T2 construct: also called hCD47; CD47 antigen
Put plainly: receptor occupancy assay on A2780ADR cells (carry both ABCB1 and CD47), flow cytometry; free CD47 detected with Alexa 647 anti-hCD47 CC2C6 (competitor), direct binding with PE anti-human IgG Fc.

Experiment [4] addresses T3, cynomolgus CD47 on red blood cells (cynomolgus, UniProt A0A5F8AK49 19-323 (rhesus entry)).
T3 construct: whole, on cells; The assay target is the red blood cell; also called cynomolgus Red Blood Cells
Nature of the experiment: flow cytometry on cynomolgus RBC, donor Cy745.

The target in experiment [5] is T2, human CD47 on cells. Put plainly: flow cytometry, DX5 B1 KO (ABCB1 knock-out) cells, % positive cells.
Experiment [6] addresses T2, human CD47 on cells. Nature of the experiment: flow cytometry on human RBC, donor D836.
Experiment [7] deals with T3, cynomolgus CD47 on red blood cells. Nature of the experiment: flow cytometry on cynomolgus RBC, donor Cy744.
The target in experiment [8] is T2, human CD47 on cells. Put plainly: flow cytometry on human RBC, donor D834.
Experiment [9] has as its target T3, cynomolgus CD47 on red blood cells. Put plainly: flow cytometry on cynomolgus RBC, donor Cy746.
The target of experiment [10] is T1, human ABCB1 on cells. Put plainly: flow cytometry, DX5 WT cells (carry both ABCB1 and CD47), MFI.
The target of experiment [11] is T2, human CD47 on cells. Nature of the experiment: receptor occupancy assay on A2780ADR cells, curve 'BiS-Direct Binding' (PE anti-human IgG Fc); the cells carry both antigens, the target is named after the receptor whose free signal falls most in the same panel.
Experiment [12] concerns the target T2, human CD47 on cells. Nature of the experiment: flow cytometry on human RBC, donor D837.
Experiment [13] addresses T1, human ABCB1 on cells. Put plainly: flow cytometry, DX5 CD47 knock-out cells ('DX5 KT14 KO'), MFI.
Experiment [14] deals with T2, human CD47 on cells. Nature of the experiment: flow cytometry on human RBC, donor D835.
The target in experiment [15] is T3, cynomolgus CD47 on red blood cells. Nature of the experiment: flow cytometry on cynomolgus RBC, donor Cy747.
Experiment [16] deals with T1, human ABCB1 on cells. Nature of the experiment: flow cytometry, DX5 CD47 KO cells, % positive cells. This is another data set of the same source.
Experiment [17] has as its target T4, recombinant extracellular domain of human CD47-Fc fusion protein (human, UniProt Q08722 19-139).
T4 construct: extracellular domain; also called huCD47 ECD; CD47-Fc fusion protein (R&D systems); not shown: Fc part of the bought fusion protein; not described
Nature of the experiment: ELISA on plate-coated recombinant human CD47 extracellular domain-Fc, A450; x axis printed as log10 values under the unit nM. Background: An ELISA detects its analyte on a solid surface through an enzyme-linked reagent.

Experiment [18] concerns the target T2, human CD47 on cells. Put plainly: flow cytometry, DX5 B1 KO (ABCB1 knock-out) cells, % positive cells. This is another data set of the same source.
The target in experiment [19] is T1, human ABCB1 on cells. Put plainly: receptor occupancy assay on A2780ADR cells, curve 'BiS-Direct Binding' (PE anti-human IgG Fc); the cells carry both antigens, the target is named after the receptor whose free signal falls in the same panel.

B1: 15D3hmz HIR2/KT14 KbR1/B1VL6/CDR3v2a (bispecific antibody, human IgG1, kappa)
heavy 1: EVQLVESGGVVVQPGGSLRLSCAASGFTFSRYTMSWVRQAPGKGLEWVATISSGGGNTYYPDSVKGRFTVSRDNSKNSLYLQMNSLRTEDTALYYCARYGAGDAWFAYWGQGTLVTVSSASTKGPSVFPLAPSSKSTSGGTAALGCLVKDYFPEPVTVSWNSGALTSGVHTFPAVLQSSGLYSLSSVVTVPSSSLGTQTYICNVNHKPSNTKVDKRVEPKSCDKTHTCPPCPAPELLGGPSVFLFPPKPKDTLMISRTPEVTCVVVDVSHEDPEVKFNWYVDGVEVHNAKTKPREEQYNSTYRVVSVLTVLHQDWLNGKEYKCKVSNKALPAPIEKTISKAKGQPREPQVCTLPPSREEMTKNQVSLSCAVKGFYPSDIAVEWESNGQPENNYKTTPPVLDSDGSFVLVSKLTVDKSRWQQGNVFSCSVMHEALHNHYTQKSLSLSPG
heavy 2: not shown
light: DIVMTQSPLSLPVTPGEPASISCRSSQSLVHSNGNTYLEWYLQKPGQSPQLLIYKVSNRFSGVPDRFSGSGSGTDFTLKISRVEAEDVGVYYCFQGSHFPRTFGQGTKLEIKRTVAAPSVFIFPPSDEQLKSGTASVVCLLNNFYPREAKVQWKVDNALQSGNSQESVTEQDSKDSTYSLSSTLTLSKADYEKHKVYACEVTHQGLSSPVTKSFNRGEC
notes: Humanized ABCB1 x CD47 IgG1 bispecific with a common light chain
With B1, the EC50 (read off the curve) (usually the concentration needed to bring the measured effect to its halfway point) in experiment [1] was about 0.8 nM; in [2], about 5 nM. Also, the binding result in experiment [3] is recorded as “binds”.

B2: 15D3 hmz HIR2/KT14 KbR1/B1.89v1.huL1(KV2) (bispecific antibody, human IgG1, kappa)
heavy 1: EVQLVESGGVVVQPGGSLRLSCAASGFTFSRYTMSWVRQAPGKGLEWVATISSGGGNTYYPDSVKGRFTVSRDNSKNSLYLQMNSLRTEDTALYYCARYGAGDAWFAYWGQGTLVTVSSASTKGPSVFPLAPSSKSTSGGTAALGCLVKDYFPEPVTVSWNSGALTSGVHTFPAVLQSSGLYSLSSVVTVPSSSLGTQTYICNVNHKPSNTKVDKRVEPKSCDKTHTCPPCPAPELLGGPSVFLFPPKPKDTLMISRTPEVTCVVVDVSHEDPEVKFNWYVDGVEVHNAKTKPREEQYNSTYRVVSVLTVLHQDWLNGKEYKCKVSNKALPAPIEKTISKAKGQPREPQVCTLPPSREEMTKNQVSLSCAVKGFYPSDIAVEWESNGQPENNYKTTPPVLDSDGSFVLVSKLTVDKSRWQQGNVFSCSVMHEALHNHYTQKSLSLSPG
heavy 2: not shown
light: DIVMTQSPLSLPVTPGEPASISCRSSQTIVHSNGNTYLEWYLQKPGQSPQLLIYKVSKRFSGVPDRFSGSGSGTDFTLKISRVEAEDVGVYYCFQASHFPRTFGQGTKLEIKRTVAAPSVFIFPPSDEQLKSGTASVVCLLNNFYPREAKVQWKVDNALQSGNSQESVTEQDSKDSTYSLSSTLTLSKADYEKHKVYACEVTHQGLSSPVTKSFNRGEC
notes: as for B1
For the molecule B2, the “% Positive” value in experiment [4] was found to be 10.6%; in [6] it was 1.1%; in experiment [7] it was 7.9%; in experiment [8], 2%; in experiment [9] it was 57.7%; in [12], 1.6%. The entries for the “% Positive” value in experiment [14] and in experiment [15] were 1.4% and 74.5%, respectively. Moreover, the “EC50 (read off the curve)” value is about 30 nM in [5]; about 30 nM in experiment [10]; about 200 nM in [11]; about 50 nM in [13]; about 0.4 nM in experiment [16].

B3: 15D3 hmz DD/KT14 KK/MRK16 hmz bispecific antibody (bispecific antibody, human IgG1)
heavy 1: not shown
heavy 2: not shown
VL: DIVMTQTPLSSPVTLGQPASISCRSSQSIVHSTGNTYLEWYQQRPGQPPRLLIYKISNRFSGVPDRFSGSGAGTDFTLKISRVEAEDVGVYYCFQASHFPRTFGGGTKLEIKR
notes: the general methods state a human kappa constant region
Regarding B3, the half-maximal effective concentration (EC50 (read off the curve)) in experiment [17] was about 0.08 nM.

B4: ABCB1XCD47 KBisP1.1 (15D3 HC KK/KT14 HC DD/MRK16 LC) (bispecific antibody, human IgG1, kappa)
heavy 1: not shown
heavy 2: not shown
light: DVLMTQTPVSLSVSLGDQASISCRSSQSIVHSTGNTYLEWYLQKPGQSPKLLIYKISNRFSGVPDRFSGSGSGTDFTLKISRVEAEDLGVYYCFQASHFPRTFGGGTKLEIKRTVAAPSVFIFPPSDEQLKSGTASVVCLLNNFYPREAKVQWKVDNALQSGNSQESVTEQDSKDSTYSLSSTLTLSKADYEKHKVYACEVTHQGLSSPVTKSFNRGEC
notes: also called KNJYBisP1.1
With B4, the “% Positive” value in experiment [4] came to 0.7%; in experiment [6] it was 0.3%; in experiment [7], 0.5%; in [8], 0.4%; in experiment [9] it was 2%; in [12] it was 0.5%. For the same molecule, the figures for the “% Positive” value in [14] and in [15] were 0.4% and 3.7%, respectively. For the same molecule, the concentration for a half-maximal effect (EC50 (read off the curve)) in [10] was about 10 nM; in experiment [13], about 30 nM.

B5: KB1-1401 (bispecific antibody, human IgG1, kappa)
heavy chain 1 (anti-ABCB1, DD): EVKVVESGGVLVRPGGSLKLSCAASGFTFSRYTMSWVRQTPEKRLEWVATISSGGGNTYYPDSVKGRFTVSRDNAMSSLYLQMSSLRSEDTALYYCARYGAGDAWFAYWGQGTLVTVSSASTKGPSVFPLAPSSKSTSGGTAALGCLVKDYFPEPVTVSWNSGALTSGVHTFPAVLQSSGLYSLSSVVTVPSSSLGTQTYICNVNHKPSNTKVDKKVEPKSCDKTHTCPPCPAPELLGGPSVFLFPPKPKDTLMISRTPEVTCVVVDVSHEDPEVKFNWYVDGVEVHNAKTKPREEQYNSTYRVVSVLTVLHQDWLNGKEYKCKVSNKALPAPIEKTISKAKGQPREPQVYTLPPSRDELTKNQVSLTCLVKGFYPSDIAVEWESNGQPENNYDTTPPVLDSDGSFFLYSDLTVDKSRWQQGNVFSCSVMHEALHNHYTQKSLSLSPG
heavy chain 2 (anti-CD47, KK): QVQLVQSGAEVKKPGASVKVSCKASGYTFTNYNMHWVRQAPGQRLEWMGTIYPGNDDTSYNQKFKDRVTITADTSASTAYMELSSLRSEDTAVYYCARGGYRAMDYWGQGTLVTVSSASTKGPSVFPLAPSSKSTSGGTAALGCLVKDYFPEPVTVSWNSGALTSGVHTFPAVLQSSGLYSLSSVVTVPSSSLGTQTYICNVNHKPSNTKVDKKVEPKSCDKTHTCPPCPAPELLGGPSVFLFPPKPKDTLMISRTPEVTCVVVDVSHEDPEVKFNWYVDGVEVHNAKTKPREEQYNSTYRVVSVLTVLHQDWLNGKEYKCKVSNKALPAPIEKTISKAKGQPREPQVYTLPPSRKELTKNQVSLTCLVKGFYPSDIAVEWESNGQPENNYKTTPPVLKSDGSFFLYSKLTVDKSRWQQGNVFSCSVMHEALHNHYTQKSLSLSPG
light chain: DVLMTQTPVSLSVSLGDQASISCRSSQSIVHSTGNTYLEWYLQKPGQSPKLLIYKISNRFSGVPDRFSGSGSGTDFTLKISRVEAEDLGVYYCFQASHFPRTFGGGTKLEIKRTVAAPSVFIFPPSDEQLKSGTASVVCLLNNFYPREAKVQWKVDNALQSGNSQESVTEQDSKDSTYSLSSTLTLSKADYEKHKVYACEVTHQGLSSPVTKSFNRGEC
notes: also called 15D3DD KT14KK MRK16
Turning to B5, in experiment [18], the binding result was “no binding (tested: about 660 nM)”. Also, in [19], the concentration for a half-maximal effect (EC50 (read off the curve)) is about 200 nM.

B6: anti-CD47 monoclonal antibody 5F9 (antibody, IgG1, V domains shown)
VH: QVQLVQSGAEVKKPGASVKVSCKASGYTFTNYNMHWVRQAPGQRLEWMGTIYPGNDDTSYNQKFKDRVTITADTSASTAYMELSSLRSEDTAVYYCARGGYRAMDYWGQGTLVTVSS
VL: DIVMTQSPLSLPVTPGEPASISCRSSQSIVYSNGNTYLGWYLQKPGQSPQLLIYKVSNRFSGVPDRFSGSGSGTDFTLKISRVEADVGVYYCFQGSHVPYTFGQGTKLEIK
notes: also called KT14; 5F9 KT14 mAb
For the molecule B6, the “% Positive” value was determined as 98.8% in [4]; 98.9% in experiment [6]; 99% in experiment [7]; 99.1% in [8]; 99.4% in experiment [9]; 99.1% in experiment [12]. Moreover, the results for the “% Positive” value in experiment [14] and in experiment [15] were 98.9% and 99%, respectively. Moreover, the concentration for a half-maximal effect (EC50 (read off the curve)) in experiment [17] is about 0.003 nM.

B7: 15D3hmz16-1/KT14/MRK16v4a1 (bispecific antibody, V domains shown)
VH 1: EVQLVESGGVVVQPGGSLRLSCAASGFTFSRYTMSWVRQAPGKGLEWVATISSGGGNTYYPDSVKGRFTVSRDNSKNSLYLQMNSLRTEDTALYYCARYYRYDAWFAYWGQGTLVTVSS
VH 2: QVQLVQSGAEVKKPGASVKVSCKASGYTFTNYNMHWVRQAPGQRLEWMGTIYPGNDDTSYNQKFKDRVTITADTSASTAYMELSSLRSEDTAVYYCARGGYRAMDYWGQGTLVTVSS
VL: DIVMTQTPLSSPVTLGQPASISCRSSQSIVHSTGNTYLEWYQQKPGQPPRLLIYKISNRFSGVPDRFSGSGSGTDFTLKISRVEAEDVGVYYCFQASHFPRTFGQGTKLEIK
notes: Human IgG1/kappa bispecific with KK/DD charge-pair Fc; also called 15D3hmz16-1 KK/KT14 DD/MRK16v4a1 Bispecific; 15D316-1 DD/KT14 KK/MRK16v4a1 hmz LC
With B7, the “% Positive” value worked out at 0.4% in [4], 0.4% in experiment [7], 1.5% in experiment [9] and 5.7% in experiment [15].

B8: 15D3hmz16-1/KT14/MRK16v4a12 (bispecific antibody, V domains shown)
VH 1: EVQLVESGGVVVQPGGSLRLSCAASGFTFSRYTMSWVRQAPGKGLEWVATISSGGGNTYYPDSVKGRFTVSRDNSKNSLYLQMNSLRTEDTALYYCARYYRYDAWFAYWGQGTLVTVSS
VH 2: QVQLVQSGAEVKKPGASVKVSCKASGYTFTNYNMHWVRQAPGQRLEWMGTIYPGNDDTSYNQKFKDRVTITADTSASTAYMELSSLRSEDTAVYYCARGGYRAMDYWGQGTLVTVSS
VL: DIVMTQTPLSSPVTLGQPASISCRSSQSIVHSTGNTYLEWYQQKPGQPPRLLIYKVSNRFSGVPDRFSGSGSGTDFTLKISRVEAEDVGVYYCFQASHFPRTFGQGTKLEIK
notes: Human IgG1/kappa bispecific
For B8, the “% Positive” value in [8] amounted to 0.4%.
